The text below walks through data of article PMC7454256 (Antibody Therapeutics, 2020).

The target in assay [1] is T1, Ebola virus glycoprotein (EBOV GP), trimer of the GP1 + GP2 heterodimer lacking the transmembrane domain (Ebola virus, Mayinga strain, UniProt Q05320).
T1 construct: also called soluble Ebola virus glycoprotein; EBOV GP trimer complex of GP1 + GP2 heterodimer; source: Drosophila S2 cells; supplied by Integrated Biotherapeutics, purified
Kind of assay: SPR. The conditions noted are these: both partners purified.
T1 sequence (Q05320 33-637, one chain of several): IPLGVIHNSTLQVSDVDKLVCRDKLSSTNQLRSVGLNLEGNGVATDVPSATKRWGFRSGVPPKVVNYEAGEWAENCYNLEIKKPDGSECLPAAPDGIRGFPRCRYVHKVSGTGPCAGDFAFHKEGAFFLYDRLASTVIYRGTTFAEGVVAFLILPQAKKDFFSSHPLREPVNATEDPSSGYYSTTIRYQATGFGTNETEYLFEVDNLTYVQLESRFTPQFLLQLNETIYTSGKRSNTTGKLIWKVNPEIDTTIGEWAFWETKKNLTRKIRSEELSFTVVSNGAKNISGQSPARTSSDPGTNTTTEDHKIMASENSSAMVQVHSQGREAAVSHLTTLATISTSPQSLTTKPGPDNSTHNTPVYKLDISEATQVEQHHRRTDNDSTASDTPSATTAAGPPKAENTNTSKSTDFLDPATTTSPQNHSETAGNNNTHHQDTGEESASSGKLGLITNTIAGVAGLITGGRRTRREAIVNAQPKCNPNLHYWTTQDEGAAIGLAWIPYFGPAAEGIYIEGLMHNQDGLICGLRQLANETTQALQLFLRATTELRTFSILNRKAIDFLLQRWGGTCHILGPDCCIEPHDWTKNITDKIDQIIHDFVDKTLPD

Assay [2] deals with T2, Ebola virus glycoprotein (EBOV GP), trimer of the GP1 + GP2 heterodimer lacking the transmembrane domain (Ebola virus, Mayinga strain, UniProt Q05320).
T2 construct: also called soluble Ebola virus glycoprotein; EBOV GP trimer complex of GP1 + GP2 heterodimer; source: Drosophila S2 cells; supplied by Integrated Biotherapeutics, purified
Kind of assay: SPR. The conditions noted are these: both partners purified. This is another data set of the same source.
T2 sequence (Q05320 33-637, one chain of several): as above

B1: CA45 (antibody, V domains shown)
VH: QVQLQEWGEGLVKPSETLSLTCAVYGGSISGYYHWNWIRLPPGKGLEWIGNIDGNSASTNYNPSLKTRVTISKDTSKNQISLKVRSLTAADTAVYYCARDPGFTIFGVVITSWSGLDSWGQGAVVTVSS
VL: DIQMTQSPSSLSASVGDTVTITCRASQSISNNLAWYQQRPRRAPQLLIYAASNLASGVPSRFSGSGSGTDFTLTISSLQAEDFAAYYCQQHNTLPLTFGGGTKVEIK
Consider B1, for which the binding result in assay [1] is “binds”.

B2: mAb100 (antibody, V domains shown)
VH: QVQLQESGPGLVKPSDTLSLTCTVSGGSLSSFYWSWIRQPPGKGLEWIGYIYYSGSPNYSPSLESRVTMSVDTTRNQISLKLDSVTAADTAVYYCVRASRSYYWGSYRPTAFDSWGQGTLVTVSS
VL: YELTQPLSVSVSPGQTAIFTCSGDNLGDKYVCWFQQRPGQSPMLLIYQDNKRPSGIPERFSGSNSGNTATLTISGTQSTDEADYYCQTWDSTVVFGGGTKLTVL
With B2, the binding result in assay [1] was “binds”.

B3: ADI-15946 (antibody, V domains shown)
VH: EVQLVESGGGLVKPGGSLRLSCAASGFTFSNAWMSWVRQAPGKGLEWVGRIKSKTDGGTIDYAAPVKGRFTISRDDSKNTVYLQMTSLKTEDTAVYYCTTYTEDMRYFDWLLRGGETFDYWGQGTLVTVSS
VL: DIRLTQSPSSLSASVGDRVTITCRASHYISTYLNWYQQKPGKAPKLLIYAASNLQSGVPSRFSGSGFGTDFSLTISSLQPEDFATYHCQQSYSTPGRYTFGQGTKVEIK
notes: also called PE-64
Regarding B3, in assay [1], the binding result is “binds”.

B4: ADI-15878 (antibody, V domains shown)
VH: QVQLVQSGVTLVQPGGSLRVSCAASGFTFSSYAMSWVRQAPGKGLEWVSAISGLGGSTYYADSVKGRFTISRDNSKNTLYLQMNSLRAEDTAVYYCAKDHRVWAAGYHFDYWGQGALVTVSS
VL: DIVLTQSPSTLSASVGDRVTITCRASQSISSWLAWYQQKPGEAPKLLISDASSLESGVPSRFSGSGSGTEFTLTISSLQPDDFATYYCQQYYSSPIFGGGTKVEIK
notes: also called PE-87; Control PE-87; source: supplied in purified form (Integrated Biotherapeutics)
For the molecule B4, the binding result in assay [2] is listed as “binds”.

B5: KZ52 (antibody, V domains shown)
VH: EVQLLESGGGLVKPGGSLRLSCAASGFTLINYRMNWVRQAPGKGLEWVSSISSSSSYIHYADSVKGRFTISRDNAENSLYLQMNSLRAEDTAVYYCVREGPRATGYSMADVFDIWGQGTMVTVSS
VL: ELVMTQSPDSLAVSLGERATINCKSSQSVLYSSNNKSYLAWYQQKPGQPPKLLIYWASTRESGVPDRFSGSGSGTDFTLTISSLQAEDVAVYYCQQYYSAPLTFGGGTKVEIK
notes: source: supplied in purified form (Integrated Biotherapeutics)
In the case of B5, the binding result in assay [2] is listed as “binds”.

B6: mAb114 (antibody, V domains shown)
VH: EVQLVESGGGLIQPGGSLRLSCAASGFALRMYDMHWVRQTIDKRLEWVSAVGPSGDTYYADSVKGRFAVSRENAKNSLSLQMNSLTAGDTAIYYCVRSDRGVAGLFDSWGQGILVTVSS
VL: DIQMTQSPSSLSASVGDRITITCRASQAFDNYVAWYQQRPGKVPKLLISAASALHAGVPSRFSGSGSGTHFTLTISSLQPEDVATYYCQNYNSAPLTFGGGTKVEIK
notes: as for B5
Turning to B6, the binding result in assay [2] is recorded as “binds”.
